The assay concerns the target mERK2 9m peptide (synthetic short-chain peptide for CD8-positive T-cell stimulation, …) (mouse). Description: cell-based or functional assay.

In turn, “mutated ERK2-specific T-cell receptor of DUC18 transgenic mice, on CD8-positive T cells (TCR)” had a percentage of IFN-γ-producing cells in CD90.1-positive CD8-positive infused T cells of the draining lymph node after stimulation with mERK2 9m peptide (intracellular cytokine staining) of 80%.

Values taken from patent publication US20240398864A1.
